Consider 1 molecule from US20220332804A1 (CSL INNOVATION, published 2022).

Numbering of substitutions follows the chain as printed.

What all share (assay): SPR, mAb captured, C2 mutant analyte;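 also: Anti-C2 mAbs captured on goat anti-human IgG Biacore CM5 chips, alanine or serine C2 surface mutants flowed over at 37 °C, double-referenced sensorgrams fitted to a 1:1 binding model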
One assay has as its target T1, human C2 S278A (human, UniProt P06681 21-752).
T1 sequence: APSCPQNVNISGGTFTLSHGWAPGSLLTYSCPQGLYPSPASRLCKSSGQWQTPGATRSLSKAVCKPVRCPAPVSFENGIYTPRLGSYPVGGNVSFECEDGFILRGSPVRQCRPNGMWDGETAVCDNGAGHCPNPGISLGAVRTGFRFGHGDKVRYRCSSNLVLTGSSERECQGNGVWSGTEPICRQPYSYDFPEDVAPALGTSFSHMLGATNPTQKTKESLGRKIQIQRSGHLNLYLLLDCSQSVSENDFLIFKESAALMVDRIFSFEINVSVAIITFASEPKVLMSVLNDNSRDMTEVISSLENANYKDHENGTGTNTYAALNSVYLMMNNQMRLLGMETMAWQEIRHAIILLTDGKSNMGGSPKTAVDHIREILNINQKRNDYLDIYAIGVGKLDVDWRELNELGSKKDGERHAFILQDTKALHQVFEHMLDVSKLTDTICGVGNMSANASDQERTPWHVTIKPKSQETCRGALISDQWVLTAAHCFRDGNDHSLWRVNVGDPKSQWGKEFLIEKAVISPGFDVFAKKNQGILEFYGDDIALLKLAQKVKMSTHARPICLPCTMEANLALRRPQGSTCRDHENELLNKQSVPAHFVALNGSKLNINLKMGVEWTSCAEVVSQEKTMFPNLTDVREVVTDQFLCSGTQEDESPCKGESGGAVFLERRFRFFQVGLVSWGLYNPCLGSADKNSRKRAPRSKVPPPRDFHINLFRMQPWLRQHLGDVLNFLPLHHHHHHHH

The next assay has as its target T2, human C2 W420A (human, UniProt P06681 21-752).
T2 sequence: T1 sequence with A258S, W400A

The next assay addresses T3, human C2 A470S (human, UniProt P06681 21-752).
T3 sequence: T1 sequence with A258S, A450S

The next assay concerns the target T4, human C2 E476A (human, UniProt P06681 21-752).
T4 sequence: T1 sequence with A258S, E456A

Procedure for human C2 A470S: (§1) Surface plasmon resonance (SPR, Biacore) was used for all binding affinity analyses. In brief, goat anti-human IgG was directly immobilised onto the carboxymethyl dextran surface of CM5 sensorchips to approximately 12,000 RU using standard NHS/EDC chemistry at pH 5. The immobilised antibody surface was pre-conditioned with ten injections of polyclonal human IgG (Privigen 60 s) prepared at 1 μg/mL. Ligands (anti-C2 mAbs) were captured at the beginning of each cycle as described below. An adjacent spot or flow cell in which only Polyclonal IgG was capture was used as a reference surface. The goat anti-human IgG Fc antibody surface was regenerate in 100 mM H3PO4, injected for 45 seconds at the end of each cycle. Experiments were performed at 37° C. and the flow rate of each experiment was kept constant at 30 μL/min.
(§2) Sensogram data was double-referenced against a reference anti-IgG surface (i.e. minus anti-C2 mAb) and blank buffer injections obtained within each experiment. The binding data was fit to 1:1 (kinetic or steady-state) model using local Rmax and null refraction index (RI=0) when appropriate. Buffers and solutions were filtered (0.22 μm) prior to use.
Procedure for human C2 E476A: as §1, §2
Procedure for human C2 S278A: as §1, §2
Procedure for human C2 W420A: as §1, §2

B1: RF16-214 (antibody, V domains shown)
VH: EVQLLESGGGLVQPGGSLRLSCAASGFTFSWYQMMWVRQAPGKGLEWVSRIYPSGGGTAYADSVKGRFTISRDNSKNTLYLQMNSLRAEDTAVYYCARDAGYGDNWGQGTLVTVSS
VL: QSALTQPPSVSVSPGQTASITCSGDKLGEKYASWYQQKAGQSPVMVIYQDRKRPSGIPERFSGSNSGNTATLTISGTQAMDEADYYCQAWDTRAVVFGGGTKLTVLG
On to B1, for which the equilibrium dissociation constant (Kd) with human C2 S278A was determined as 34.5 nM; with human C2 W420A, 34.9 nM; with human C2 A470S it was 32.8 nM; in the assay with human C2 E476A, 58.6 nM.
